Columns and labels:
Details in all cases: both partners purified
Shiga toxin 1 (Stx1) [1] = target: T1, Shiga toxin 1 (Stx1) (Escherichia coli (STEC), strain not …, UniProt P08026;P69179); assay: ELISA; […]; room temperature; in triplicate
T1 construct: source: bought: Tufts University School of Medicine; copies: 1 + 5

Stx2 toxin = Stx2 toxin (Escherichia coli (STEC), strain not …, UniProt P09385;P09386); assay: ELISA; […]; room temperature; in triplicate
Shiga toxin 1 (Stx1) [2] = target: T1, Shiga toxin 1 (Stx1); assay: SPR; […]; HBS-EP pH 7.4; 25 °C; 30 uL/min; […]; Langmuir 1:1 model; BIAcore T200; in duplicate

T1 sequence (P69179 whole entry, looked up, chain 1 of 2): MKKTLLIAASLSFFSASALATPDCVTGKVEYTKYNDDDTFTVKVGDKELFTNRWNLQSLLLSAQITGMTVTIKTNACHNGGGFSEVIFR
T1 sequence (P08026 whole entry, looked up, chain 2 of 2): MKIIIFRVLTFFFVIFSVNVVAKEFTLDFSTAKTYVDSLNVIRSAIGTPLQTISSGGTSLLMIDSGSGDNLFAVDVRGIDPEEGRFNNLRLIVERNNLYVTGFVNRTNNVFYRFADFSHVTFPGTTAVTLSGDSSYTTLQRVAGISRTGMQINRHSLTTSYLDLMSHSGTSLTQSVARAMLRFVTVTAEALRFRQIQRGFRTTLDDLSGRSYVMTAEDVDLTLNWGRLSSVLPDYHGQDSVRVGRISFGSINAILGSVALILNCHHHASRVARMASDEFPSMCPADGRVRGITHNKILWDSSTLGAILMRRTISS
Stx2 toxin, sequence (P09386 whole entry, looked up, chain 1 of 2): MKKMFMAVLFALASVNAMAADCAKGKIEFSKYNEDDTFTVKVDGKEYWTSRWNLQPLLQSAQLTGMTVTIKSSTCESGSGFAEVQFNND
Stx2 toxin, sequence (P09385 whole entry, looked up, chain 2 of 2): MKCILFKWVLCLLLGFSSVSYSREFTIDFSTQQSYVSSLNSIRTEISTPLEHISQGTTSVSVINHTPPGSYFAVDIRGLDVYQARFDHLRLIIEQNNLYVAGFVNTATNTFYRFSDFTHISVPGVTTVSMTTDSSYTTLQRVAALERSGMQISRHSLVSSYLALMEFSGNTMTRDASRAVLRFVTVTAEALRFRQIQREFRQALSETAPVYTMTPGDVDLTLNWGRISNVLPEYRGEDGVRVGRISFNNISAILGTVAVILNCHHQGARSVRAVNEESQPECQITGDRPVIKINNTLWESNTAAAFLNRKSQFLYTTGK

B1: scFvStx1 (scFv, V domains shown)
VH: EVQLQQSGPELVKPGTSVKMSCKASGYTFTDYFIHWVKQSHGKSLEWIGYIYPKNDGNDYNQKFKGKATLTVDKSSSTGYMELRSLTSEDSAVYYCARSRGYYGALDYWGQGTSVTVSR
VL: DLQLTQSPATLSVNPGDSVSLSCRASQSIRNDLHWYQQKSHESPRLLIKSVSQSISGIPSRFSGSGSGTDFTLSINSVETEDFGMYFCQQSYSWPLTFGAGTK
notes: also called scFvStx1(II); new scFvStx1; source: E. coli BL21 (DE3) pLysS, periplasmic expression, purified (IMAC)
**Q.** For B1, which EC50 (Shiga toxin 1 (Stx1) [1]) is on record?
**A.** The EC50 was 600 nM.

**Q.** Does B1 bind (Stx2 toxin)?
**A.** Result: binds

**Q.** And the Kd (Shiga toxin 1 (Stx1) [2])?
**A.** The Kd was 226 nM.

Source: PMC6698835 (Antibodies, 2018)
